No end group written: not given here.
Biological target: T1, LGR7 (RXFP1) (Homo sapiens, UniProt Q9HBX9)
T1 sequence (Q9HBX9 1-757): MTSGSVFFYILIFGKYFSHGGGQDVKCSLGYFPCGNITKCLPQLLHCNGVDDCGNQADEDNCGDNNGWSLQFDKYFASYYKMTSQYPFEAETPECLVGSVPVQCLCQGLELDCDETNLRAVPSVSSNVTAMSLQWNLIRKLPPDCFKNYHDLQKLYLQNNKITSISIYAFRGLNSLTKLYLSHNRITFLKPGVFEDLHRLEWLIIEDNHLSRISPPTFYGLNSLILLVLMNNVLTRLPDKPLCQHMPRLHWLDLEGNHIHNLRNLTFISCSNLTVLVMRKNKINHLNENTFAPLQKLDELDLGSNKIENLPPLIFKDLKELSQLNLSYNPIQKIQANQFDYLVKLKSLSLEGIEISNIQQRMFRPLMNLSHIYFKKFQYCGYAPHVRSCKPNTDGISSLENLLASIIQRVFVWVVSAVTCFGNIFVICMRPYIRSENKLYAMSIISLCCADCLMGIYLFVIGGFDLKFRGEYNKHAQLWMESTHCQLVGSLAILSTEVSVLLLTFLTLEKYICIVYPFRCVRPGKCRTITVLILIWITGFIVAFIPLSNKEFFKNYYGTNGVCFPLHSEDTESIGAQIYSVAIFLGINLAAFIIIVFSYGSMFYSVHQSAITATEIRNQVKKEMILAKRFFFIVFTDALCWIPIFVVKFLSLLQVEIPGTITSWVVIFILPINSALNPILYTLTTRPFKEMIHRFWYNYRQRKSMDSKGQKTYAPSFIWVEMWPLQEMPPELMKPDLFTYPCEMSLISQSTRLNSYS
Experiment: cAMP accumulation (Hit Hunter cAMP kit) in CHO-K1 cells transiently transfected with LGR7
Assay type: cell-based
Parameters: expressed in transfected cells; host or cells: CHO-K1 (transient)
Conditions: for cAMP inhibition (Gi) effect: 1 uM, LGR7 CHO-K1 cells pre-treated with 10 uM Forskolin, FIG. 1; for cAMP dose response with Forskolin / Gs (cAMP increase) dose response without Forskolin: LGR7; for cAMP dose response with Forskolin: 10 uM Forskolin, 1 nM to 10 uM, FIG. 4A; for Gs (cAMP increase) dose response without Forskolin: low concentrations 3-100 nM, FIG. 4B
Procedure: The ability of Peptides to affect cAMP concentration was examined in CHO-K1 cells transiently transfected with LGR7 (RXFP1) or LGR8 (RXFP2). The experiment measured cAMP concentration in response to the addition of the peptides.
LGR7 (RXFP1) or LGR8 (RXFP2) were transiently transfected into CHO-K1 cells as follows: Cells (12 million) were plated into T75 flasks on the day preceding transfection. Cells were transfected with a GPCR DNA and Gα16 using a lipid technique according to the manufacturer's recommendation. Cells were transfected for 5 hours, then re-plated into 96-well dishes (60,000 cells per well) and grown overnight. Transfected cells were plated into 24 wells of a 96-well plate. Cells were pre-treated with 0.5 mM IBMX (stimulation buffer) for 10 min at 37° C., then stimulated with either a positive control (Relaxin 2) or a candidate peptide (for Gs functional examination), followed by stimulation or a preincubation with 10 μM forskolin (for Gi functional examination). Following a 20 minutes stimulation by incubation with 1 μM of either positive control or the tested peptides, either with or without forskolin, intracellular cAMP was assayed using the Hit Hunter cAMP kit (DiscoveRx Corporation) according to the manufacturer's recommended protocol. Data was converted to nmol of cAMP by running a standard cAMP curve.
Relaxin was used as a positive control. cAMP level was elevated by pre-treatment with forskolin.
The transfected CHO-K1 cells were treated with 10 uM of Forskolin (Applied cell sciences (ACS)) for 10 minutes and then challenged with 1 uM of H2 Relaxin (ACS) (as a positive control), 1 uM of Peptide P59C13V (P59) (SEQ ID NO: 6), and Peptide P74C13V (P74) (SEQ ID NO: 10).
CHO-K1 cells transiently transfected with LGR7 (RXFP1) were treated with 10 uM of Forskolin for 10 minutes and then challenged with either H2 Relaxin (as a positive control), P59C13V (P59) (SEQ ID NO: 6) or P74C13V (P74) (SEQ ID NO: 10) at increasing concentrations, from 1 nm to 10 uM (FIG. 4A) and from 3 nM to 100 nM (FIG. 4B). cAMP concentrations were determined at each point, as described above with (FIG. 4A) or without (FIG. 4B) the presence of Forskolin.

cAMP inhibition (Gi) effect	cAMP dose response with Forskolin	Gs (cAMP increase) dose response without Forskolin	Substance
clear cAMP inhibition (Gi) effect	bell-shaped curve	dose dependent increase in cAMP	GQKGQVGPPGAAVRRAYAAFSV [Peptide P59C13V]
clear cAMP inhibition (Gi) effect	no significant effect		GQKGQVGPPGAAVRRAYAAFSVGRRAYAAFSV-OH [Peptide P74C13V]
affected only the LGR7 (RXFP1) receptor	dose dependent decrease (Gi) effect	dose dependent increase in cAMP	H2 Relaxin: H2 Relaxin (ACS), positive control, known ligand of LGR7 (RXFP1) [reference compound]

Source: US8492329B2, “Bioactive peptides and methods of using same” (Compugen Ltd., priority 2007, dated 2013)
